From IntAct's records for PubMed 25416956 come the findings set out here.

B1: Plakophilin-2 (Homo sapiens), Q99959 (parent)
chain: MAAPGAPAEYGYIRTVLGQQILGQLDSSSLALPSEAKLKLAGSSGRGGQTVKSLRIQEQVQQTLARKGRSSVGNGNLHRTSSVPEYVYNLHLVENDFVGGRSPVPKTYDMLKAGTTATYEGRWGRGTAQYSSQKSVEERSLRHPLRRLEISPDSSPERAHYTHSDYQYSQRSQAGHTLHHQESRRAALLVPPRYARSEIVGVSRAGTTSRQRHFDTYHRQYQHGSVSDTVFDSIPANPALLTYPRPGTSRSMGNLLEKENYLTAGLTVGQVRPLVPLQPVTQNRASRSSWHQSSFHSTRTLREAGPSVAVDSSGRRAHLTVGQAAAGGSGNLLTERSTFTDSQLGNADMEMTLERAVSMLEADHMLPSRISAAATFIQHECFQKSEARKRVNQLRGILKLLQLLKVQNEDVQRAVCGALRNLVFEDNDNKLEVAELNGVPRLLQVLKQTRDLETKKQITDHTVNLRSRNGWPGAVAHACNPSTLGGQGGRITRSGVRDQPDQHGLLWNLSSNDKLKNLMITEALLTLTENIIIPFSGWPEGDYPKANGLLDFDIFYNVTGCLRNMSSAGADGRKAMRRCDGLIDSLVHYVRGTIADYQPDDKATENCVCILHNLSYQLEAELPEKYSQNIYIQNRNIQTDNNKSIGCFGSRSRKVKEQYQDVPMPEEKSNPKGVEWLWHSIVIRMYLSLIAKSVRNYTQEASLGALQNLTAGSGPMPTSVAQTVVQKESGLQHTRKMLHVGDPSVKKTAISLLRNLSRNLSLQNEIAKETLPDLVSIIPDTVPSTDLLIETTASACYTLNNIIQNSYQNARDLLNTGGIQKIMAISAGDAYASNKASKAASVLLYSLWAHTELHHAYKKAQFKKTDFVNSRTAKAYHSLKD
partner: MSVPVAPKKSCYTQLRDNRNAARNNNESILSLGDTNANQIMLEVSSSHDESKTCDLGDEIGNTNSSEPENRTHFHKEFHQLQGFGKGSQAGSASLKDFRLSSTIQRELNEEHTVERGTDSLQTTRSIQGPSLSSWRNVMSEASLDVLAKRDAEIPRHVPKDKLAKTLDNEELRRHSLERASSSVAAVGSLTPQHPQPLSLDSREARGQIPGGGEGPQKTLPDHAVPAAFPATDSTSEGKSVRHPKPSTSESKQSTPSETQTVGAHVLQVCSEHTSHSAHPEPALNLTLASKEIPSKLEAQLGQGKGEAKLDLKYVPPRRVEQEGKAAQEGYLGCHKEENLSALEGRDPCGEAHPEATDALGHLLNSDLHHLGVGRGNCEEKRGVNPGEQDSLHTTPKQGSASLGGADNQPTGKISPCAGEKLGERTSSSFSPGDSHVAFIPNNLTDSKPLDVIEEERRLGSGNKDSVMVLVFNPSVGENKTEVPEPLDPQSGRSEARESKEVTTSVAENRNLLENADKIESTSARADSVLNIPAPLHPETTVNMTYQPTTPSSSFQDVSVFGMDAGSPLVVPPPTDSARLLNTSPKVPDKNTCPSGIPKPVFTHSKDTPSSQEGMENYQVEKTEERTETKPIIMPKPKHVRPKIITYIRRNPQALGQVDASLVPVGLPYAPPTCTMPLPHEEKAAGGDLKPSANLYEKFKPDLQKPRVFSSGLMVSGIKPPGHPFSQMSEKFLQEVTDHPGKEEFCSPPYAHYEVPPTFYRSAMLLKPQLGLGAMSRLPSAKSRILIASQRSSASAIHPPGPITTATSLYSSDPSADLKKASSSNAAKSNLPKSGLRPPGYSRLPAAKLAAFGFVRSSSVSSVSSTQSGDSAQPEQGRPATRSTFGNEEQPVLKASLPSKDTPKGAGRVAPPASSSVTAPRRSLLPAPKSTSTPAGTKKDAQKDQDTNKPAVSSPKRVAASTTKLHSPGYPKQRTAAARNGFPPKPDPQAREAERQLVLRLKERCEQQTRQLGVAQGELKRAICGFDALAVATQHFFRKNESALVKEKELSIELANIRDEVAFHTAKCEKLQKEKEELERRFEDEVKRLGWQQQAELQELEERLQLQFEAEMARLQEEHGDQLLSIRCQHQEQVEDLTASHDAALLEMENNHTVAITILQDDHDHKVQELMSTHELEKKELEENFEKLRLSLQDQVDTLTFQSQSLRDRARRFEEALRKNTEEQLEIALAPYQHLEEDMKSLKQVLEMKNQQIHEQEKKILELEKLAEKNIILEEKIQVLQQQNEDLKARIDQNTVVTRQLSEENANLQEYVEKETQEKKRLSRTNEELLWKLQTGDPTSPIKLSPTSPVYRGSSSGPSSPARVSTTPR
B2: Lipopolysaccharide-induced tumor necrosis factor-alpha factor (Homo sapiens), Q99732 (parent)
chain: MSVPGPYQAATGPSSAPSAPPSYEETVAVNSYYPTPPAPMPGPTTGLVTGPDGKGMNPPSYYTQPAPIPNNNPITVQTVYVQHPITFLDRPIQMCCPSCNKMIVSQLSYNAGALTWLSCGSLCLLGCIAGCCFIPFCVDALQDVDHYCPNCRALLGTYKRL

The variants in the first assay derive from B1. The settings on record: with mtus2_human MTUS2, Q5JR59.
As for S140F, the “effect of a mutation on the interaction” value was “disrupting interaction”.

The variants in the next assay derive from B2. The settings on record: with hgs_human HGS.
In the case of G112S, the “effect of a mutation on the interaction” value was “disrupting interaction”.

Variants of B2 are the subject of a further assay. Conditions: with stam2_human STAM2, O75886.
For the variant G112S, the “effect of a mutation on the interaction” value is “disrupting interaction”.

In a further assay the parent is B2. Conditions: with reep6_human REEP6, Q96HR9.
reep6_human REEP6, Q96HR9, sequence (Q96HR9 whole entry): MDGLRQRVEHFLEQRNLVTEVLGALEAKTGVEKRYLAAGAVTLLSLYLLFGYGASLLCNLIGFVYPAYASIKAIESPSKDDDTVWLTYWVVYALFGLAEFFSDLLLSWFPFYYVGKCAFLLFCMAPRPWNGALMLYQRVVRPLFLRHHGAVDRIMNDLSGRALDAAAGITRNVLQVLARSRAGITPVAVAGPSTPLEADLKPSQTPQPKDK
Turning to G112S, the “effect of a mutation on the interaction” value is given as “disrupting interaction”.

The next assay covers variants of B2. Conditions: with UBQLN1, Q9UMX0-2.
UBQLN1, Q9UMX0-2, sequence (Q9UMX0 other isoform, or with tags, fused parts or gaps): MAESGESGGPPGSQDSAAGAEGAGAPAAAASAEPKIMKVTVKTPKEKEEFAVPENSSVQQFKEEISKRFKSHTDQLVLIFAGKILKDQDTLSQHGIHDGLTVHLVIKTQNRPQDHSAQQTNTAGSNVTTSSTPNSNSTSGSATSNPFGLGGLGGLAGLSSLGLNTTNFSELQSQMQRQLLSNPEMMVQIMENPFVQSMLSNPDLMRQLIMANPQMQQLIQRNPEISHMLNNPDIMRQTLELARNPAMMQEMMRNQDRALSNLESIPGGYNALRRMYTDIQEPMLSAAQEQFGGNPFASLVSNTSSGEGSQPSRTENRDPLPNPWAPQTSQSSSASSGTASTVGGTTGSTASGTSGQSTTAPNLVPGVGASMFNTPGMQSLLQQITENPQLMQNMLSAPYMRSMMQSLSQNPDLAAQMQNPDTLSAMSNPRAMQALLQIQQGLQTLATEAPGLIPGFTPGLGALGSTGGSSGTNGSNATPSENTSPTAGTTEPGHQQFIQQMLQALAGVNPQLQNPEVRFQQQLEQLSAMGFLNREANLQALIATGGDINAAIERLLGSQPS
With G112S, the “effect of a mutation on the interaction” value is “disrupting interaction”.

Variants of B2 are the subject of the next assay. Conditions: with ubql1_human UBQLN1, Q9UMX0.
ubql1_human UBQLN1, Q9UMX0, sequence (Q9UMX0 whole entry): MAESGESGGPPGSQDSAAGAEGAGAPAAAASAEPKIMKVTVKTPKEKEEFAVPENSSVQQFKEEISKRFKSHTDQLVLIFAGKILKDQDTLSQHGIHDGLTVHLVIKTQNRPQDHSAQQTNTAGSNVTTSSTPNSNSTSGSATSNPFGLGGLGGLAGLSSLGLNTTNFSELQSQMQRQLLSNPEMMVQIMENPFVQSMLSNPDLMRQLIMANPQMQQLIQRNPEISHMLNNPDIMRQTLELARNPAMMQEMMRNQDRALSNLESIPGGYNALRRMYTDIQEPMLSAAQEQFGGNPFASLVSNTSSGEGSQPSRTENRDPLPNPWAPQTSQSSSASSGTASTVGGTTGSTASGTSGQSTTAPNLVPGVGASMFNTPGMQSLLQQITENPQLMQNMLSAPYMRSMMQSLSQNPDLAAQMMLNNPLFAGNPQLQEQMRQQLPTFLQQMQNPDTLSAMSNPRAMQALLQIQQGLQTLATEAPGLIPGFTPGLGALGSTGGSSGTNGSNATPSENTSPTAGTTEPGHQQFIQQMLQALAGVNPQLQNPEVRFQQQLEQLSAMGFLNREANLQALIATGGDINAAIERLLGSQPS
On to G112S, for which the “effect of a mutation on the interaction” value was “disrupting interaction”.
